Test: yeast display, Sf9 membrane polyspecificity reagent, FACS + sequencing; frameworks hold sequencing errors
Method in brief: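 Using colony PCR, genes from sorted yeast display clones were amplified, then sequenced on MiSeq at 2 × 250 and filtered by CDR length. The clones had been stained with 10% biotinylated, detergent-solubilized Sf9 membrane reagent for 1 hour at 4 °C and sorted by FACS into low and high (top ~1%) gates on anti-HA and streptavidin fluorescence. Polyreactivity labels come from the gate of origin.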

| Sequence | polyreactivity (PSR sort gate) |
| --- | --- |
| QVQLVESGGGLVQAGGSLRLSCAASGRIFPDNAMGWYRQAPGKERELVASITSGASTNYADSVKGRFTISRDNAKNTVYLQMNSLKPEDTAVYYCAAVTYAQYRRFDYWGQGTQVTVSS | high polyreactivity |
| QVQLVESGGGLVQAGGSLRLSCAASGRIFPDYDMGWYRQAPGKERELVAAITQRGGSTYADSVKGRFTISRDNAKNTVYLQMNSLKPEDTAVYYCAREYYEGYEYWGQGTQVTVSS | low polyreactivity |
| QVQLVESGGGLVQAGGSLRLSCAASGRIFPDYDMGWYRQAPGKERELVASISTRGGSTYADSVKGRFTISRDNAKNTVYLQMNSLKPEDTAVYYCATDGWKQSAYDYWGQGTQVTVSS | low polyreactivity |
| QVQLVESGGGLVQAGGSLRLSCAASGRIFPEYTMGWYRQAPGKERELVAAISKRGSSTNYADSVKGRFTISRDNAKNTVYLQMNSLKPEDTAVYYCAARGYTLSYVDMYYWGQGTQVIVSS | high polyreactivity |
| QVQLVESGGGLVQAGGSLRLSCAASGRIFPFNAMGWYRQAPGKERELVAAITSSGGRTYYADSVKGRFTISRDNAKNTVYLQMNSLKPEDTAVYYCAATLVRRARSGPMGYWGQGTQVTVSS | high polyreactivity |
| QVQLVESGGGLVQAGGSLRLSCAASGRIFPFNAMGWYRQAPGKERELVAVITWDGGSTYYADSVKGRFTISRDNAKNTVYLQMNSLKPEDTAVYYCAADIRRYYPGYEYWGQGTQVTVSS | low polyreactivity |
| QVQLVESGGGLVQAGGSLRLSCAASGRIFPFYAMGWYRPATWIQRELVAAITSSGGRTYYADSVKGRFTISRDIAKNTVYLQMNSLKPEETAVYYCAAGHGCYYRYFSQRDYWGQGTQVTVSS | low polyreactivity |
| QVQLVESGGGLVQAGGSLRLSCAASGRIFPFYAMGWYRQAPGKERELVAAITSSGGRTYYADSVKGRFTISRDNAKNTVYLQMNSLKPEDTAVYYCAAGHGGYYRYFSQRDYWGQGTQVTVSS | low polyreactivity |
| QVQLVESGGGLVQAGGSLRLSCAASGRIFPFYDMGWYRQAPGKERELVAAITSGTGTYYADSVKGRFTISRDNAKNTVYLQIYSLKPEDTAVYYCNARRYLRGYWGQGTQVTVSS | low polyreactivity |
| QVQLVESGGGLVQAGGSLRLSCAASGRIFPFYVMGWDRQAPGKERELVATINWSGGSTYYADSVKGRFTISRDNAKNTLYLQMNSLKPEDTAVYYCNAAPSDDYDYWGQGTQVTVSS | low polyreactivity |
| QVQLVESGGGLVQAGGSLRLSCAASGRIFPGNPMGWYRQAPGKERELVAGISFSGGRTYYADSVKGRFTISRDNAKNTVYLQMNSLKPEDTAVYYCAADAQAPPGGFKEYDYWGQGTQVTVSS | low polyreactivity |
| QVQLVESGGGLVQAGGSLRLSCAASGRIFPGNTMGWYRQAPGKERELVAAITRGGSTSYADSVKGRFTISRDNAKNTVYLQMNSLKPEDTAVYYCATRTHGEGTRRDSWGQGTQVTVSS | low polyreactivity |
| QVQLVESGGGLVQAGGSLRLSCAASGRIFPGYAMGWYRQAPGKERELVAAISGGGGRTYYADSVKGRFTISRDNAKNTVYLQMNSLKPEDTAVYYCAADTTPPRGFDYWGQGTQVTVSS | high polyreactivity |
| QVQLVESGGGLVQAGGSLRLSCAASGRIFPHYSMGWYRQAPGKERELVAAISWSGSSTYYADSVKGRFTISRDNAKNTVYLQMNSLKPEDTAVYYCNAVRRGIGYDYGYWGQGTQVTVSS | high polyreactivity |
| QVQLVESGGGLVQAGGSLRLSCAASGRIFPKNAMGWYRQAPGKERELVASISSAGSTNYADSVKGRFTISRDNAKNTVYLQMNSLKPEDTAVYYCAAYHQSFGGVKGYYWGQGTQVTVSS | high polyreactivity |
| QVQLVESGGGLVQAGGSLRLSCAASGRIFPKYAMGWYRQAPGKERELVAGITKRVGSTYYADSVKGRFTISRDNAKNTVYLQMNSLKPEDTAVYYCAKRWVSRTHGYWGQGTQVTVSS | low polyreactivity |
| QVQLVESGGGLVQAGGSLRLSCAASGRIFPKYAMVWYRQAPGKERELVAGITKRVGSTYYADSVKGRFTISRDNAKNTVYLQMNSLKPEDTAVYYCAADYRYLIDYLDPEKEGMDYWGQGTQVTVSS | low polyreactivity |
| QVQLVESGGGLVQAGGSLRLSCAASGRIFPPNAMGWYRQAPGKERELVAGITSSGDTTYYADSVKGRFTISRDNAKNTVYLQMNSLKPEDTAVYYCAKDEVYADDRSALFDYWGQGTQVTVSS | low polyreactivity |
| QVQLVESGGGLVQAGGSLRLSCAASGRIFPPYAMGWYRQAPGKERELVAAISCGGSRTYYADSVKGRFTISRDNAKNTVYLQMNSLKPEDTAVYYCAAKNYLAKSGDYWGQGTQVTVSS | high polyreactivity |
| QVQLVESGGGLVQAGGSLRLSCAASGRIFPQYAMGWYRQAPGKERELVAAISVSGTRTYYADSVKGRFTISRDNAKNTVYLQMNSLKPEDTAVYYCNTLGKYDGFYYWGQGTQVTVSS | high polyreactivity |
| QVQLVESGGGLVQAGGSLRLSCAASGRIFPRNAMGWYRQAPGQERELVAAITKSGGSTYYADSVKGRFTISRDNAKNTVYLQMNSLKPEDTAVYYCNAVQYRNYYWGQGTQVTVSS | high polyreactivity |
| QVQLVESGGGLVQAGGSLRLSCAASGRIFPRYAMGWYRQAPGKERELVAAITTGGSTYADSVKGRFTISRDNAKNTVYLQMNSLKPEDTAVYYCAKRDSNKRDYWGQGTQVTVSS | low polyreactivity |

| Sequence | polyreactivity (PSR sort gate) |
| --- | --- |
| QVQLVESGGGLVQAGGSLRLSCAASGRIFPSYAMGWYRKAPGKERELVAAISDSDGSTYYADSVKGRFTISRDNAKNTVYLQMNSLKPEDTAVYYCAAEGSFPAYDYWGQGTQVTVSS | low polyreactivity |
| QVQLVESGGGLVQAGGSLRLSCAASGRIFPSYAMGWYRQAPGKERELDATISSGGRTYYADSVKGRFTISRDNAKNTVYLQMNILKPEYTAVYYCNADRTQDRNPYTYATFDYWGQGTQVTVSS | low polyreactivity |
| QVQLVESGGGLVQAGGSLRLSCAASGRIFPSYAMGWYRQAPGKERELVAAISYSGASTYYADSVKGRFTFSRDNAKNTVYLQMNSLKPEDTAVYYCNAESGPKYYWGYAGTFDYWGQGTQVTVSS | low polyreactivity |
| QVQLVESGGGLVQAGGSLRLSCAASGRIFPSYAMGWYRQAPGKERELVATISSGGRTYYADSVKGRFTISRDNAKNTVYLQMTSLKPEDTAVYYCARRSLYHVRTQIYEYWGQGTQVTVSS | low polyreactivity |
| QVQLVESGGGLVQAGGSLRLSCAASGRIFPTNAMGWSRQAPGKERELVASITRSGSTYYADSVKGRFTISRDHAKNTVYLQMNSLKPEDTAVYYCAGYAYIFLDWGGYPYYLYEYDYWGQGTQVTVSS | low polyreactivity |
| QVQLVESGGGLVQAGGSLRLSCAASGRIFPTNAMGWYRQAPGKERVFVAAITWGGGSTYYAVSVKGRFTISRDNAKNTVYLQMNSLKPEDTAVYYCAATGHIVFFRSYDYGYWGQGTQVTVSS | low polyreactivity |
| QVQLVESGGGLVQAGGSLRLSCAASGRIFPTYAMGWYRQAPGKERELFAGITSGGRTNYADSVKGRFTISRDNAKNTVYLQMNSLKPEDTAVYYCAKRVWPRDQYGKRNPRMDYWGQGTQVTVSS | high polyreactivity |
| QVQLVESGGGLVQAGGSLRLSCAASGRIFPTYAMGWYRQAPGKERELVAAITWRGGRTYYADSEKGRFTISRDYAKNTVYLQMNSLKPEDTAVYYCAAGWLTRSYEYDYWGQGTQVTVSS | high polyreactivity |
| QVQLVESGGGLVQAGGSLRLSCAASGRIFPTYAMGWYRQAPGKERELVAGITSGGRTNYADSVKGRFTISRDNAKNTVYLQMNSLKQEDTAVYYCDKRVWPRDQYGKRNPRMDYWGQGTQVTVSS | high polyreactivity |
| QVQLVESGGGLVQAGGSLRLSCAASGRIFPTYAMVWYRQAPGKDRELVASISWSGGRTYYADSVKGRFSISRDNAKITVFLQMNSLKPEDTAVYYCAKRTYQGEGTVKRRYDYWGQVTQVTVSS | low polyreactivity |
| QVQLVESGGGLVQAGGSLRLSCAASGRIFPTYTMGWYRQAPGKERELVAGISYSGTSTSYADSVKGRFTISRDNAKNTVYLQMNSLKPEDTAVYYCAAKYYGRSFYYGYDYWGQGTQVTVSS | low polyreactivity |
| QVQLVESGGGLVQAGGSLRLSCAASGRIFPVNAMGWYRQAPGTERELVATISSGDITNYAHSVKGRFTISRDNAKNTVYLQMNSLKPEDTAVYYCAADYTWRAWTYYGIKYNYWGQGTQVTVSS | low polyreactivity |
| QVQLVESGGGLVQAGGSLRLSCAASGRIFPVYTMGWYRQAPGKERELVAAITSSGGSTYYADSVKGRFTISRDNAKNTVYLQMNSLKPEDTAVYYCAKRAGWAYYYWGQGTQVTVSS | high polyreactivity |
| QVQLVESGGGLVQAGGSLRLSCAASGRIFPWNTMGWYRQAPGKERELVAGITSCGSTNYADSVKGRFTISRDNAKNTVYLQMNSLKPEDTAVYSCAARGYYWYISGVYEYEYWGQGTQVTVSS | low polyreactivity |
| QVQLVESGGGLVQAGGSLRLSCAASGRIFPWYAMGWYRQAPGKERALVAAINWRAGRTYYADSVKGRFTISRDNAKNTVYLQMNSLKPEDTAVYYCAAETYSSGEWYDYWGQGTQVTVSS | high polyreactivity |
| QVQLVESGGGLVQAGGSLRLSCAASGRIFPWYAMGWYRQAPGKERELVATITRGTSTNYADSVKGRFTISRDNAKNTVYLQMNSLKPEDTAVYYCAASSSRRRYYYWGQGTQVTVSS | high polyreactivity |
| QVQLVESGGGLVQAGGSLRLSCAASGRIFPYYAMGWYRQAPGKERELVAAISYRGTRTSYADSVKGRFTISRDNAKNTVYLQMNSLKPEDTAVYYCAAQRYFGISWPYDYWGQGTQVTVSS | high polyreactivity |
| QVQLVESGGGLVQAGGSLRLSCAASGRIFPYYAMGWYRQAPGKERELVAAITQGGGRTYYADSVKGRFTISRDNAKNTVYLQMNSLKPEDTAVYYCAKRFTIRALLLRWADYDYWGQGTQVTVSS | low polyreactivity |
| QVQLVESGGGLVQAGGSLRLSCAASGRIFPYYAMGWYRQAPGKERELVATIRGRVGTTYYADSVKGRFTISRDNAKNSVYLEMNSLKPEDTAVYYCNTDNYSPYRYVGLYDYWGQGTQVTVSS | high polyreactivity |
| QVQLVESGGGLVQAGGSLRLSCAASGRIFPYYAMGWYRQAPGKERELVATISGGGSTDYADSVKGRFTISRDNAKNTVYLQMNSLKPEDTAVYYFAKKLRGWHTIITDYDYWGQGTQVTVSS | low polyreactivity |
| QVQLVESGGGLVQAGGSLRLSCAASGRIFQHNTMGWYRQAPGKERDFVAAIRRSGGSTYYADSVKGRFTISRDNAKNTVYLQMNSLKPEDTAVYYCAARDYPTGTRRWGGGDSWGQGTEVTVSS | low polyreactivity |

Source: the nanobody polyreactivity screen of Harvey et al. (2022)
